Measurements: PMC13094992, “Genetic complementation reveals structure-function links in nodavirus RNA replication complex crowns” (PLOS Pathogens, 2026)

B1: FHV protein A H93A, C-terminal alfa tag (natural protein)
chain: MTLKVILGEHQITRTELLVGIATVSGCGAVVYCISKFWGYGAIAPYPQSGGNRVTRALQRAVIDKTKTPIETRFYPLDSLRTVTPKRVADNGAAVSGAVRDAARRLIDESITAVGGSKFEVNPNPNSSTGLRNHFHFAVGDLAQDFRNDTPADDAFIVGVDVDYYVTEPDVLLEHMRPVVLHTFNPKKVSGFDADSPFTIKNNLVEYKVSGGAAWVHPVWDWCEAGEFIASRVRTSWKEWFLQLPLRMIGLEKVGYHKIHHCRPWTDCPDRALVYTIPQYVIWRFNWIDTELHVRKLKRIEYQDETKPGWNRLEYVTDKNELLVSIGREGEHAQITIEKEKLDMLSGLSATQSVNARLIGMGHKDPQYTSMIVQYYTGKKVVSPISPTVYKPTMPRVHWPVTSDADVPEVSARQYTLPIVSDCMMMPMIKRWETMSESIERRVTFVANDKKPSDRIAKIAETFVKLMNGPFKDLDPLSIEETIERLNKPSQQLQLRAVFEMIGVKPRQLIESFNKNEPGMKSSRIISGFPDILFILKVSRYTLAYSDIVLHAEHNEHWYYPGRNPTEIADGVCEFVSDCDAEVIETDFSNLDGRVSSWMQRNIAQKAMVQAFRPEYRDEIISFMDTIINCPAKAKRFGFRYEPGVGVKSGSPTTTPHNTQYNGCVEFTALTFEHPDAEPEDLFRLIGPKCGDDGLSRAIIQKSINRAAKCFGLELKVERYNPEIGLCFLSRVFVDPLATTTTIQDPLRTLRKLHLTTRDPTIPLADAACDRVEGYLCTDALTPLISDYCKMVLRLYGPTASTEQVRNQRRSRNKEKPYWLTCDGSWPQHPQDAHLMKQVLIKRTAIDEDQVDALIGRFAAMKDVWEKITHDSEESAAACTFDEDGVAPNSVDESLPMLNDAKQTRANPGTSRPHSNGGGSSHGNELPRRTEQRAQGPRQPARLPKQGKTNGKSDGNITAGETQRGGIPRGKGPRGGKTNTRRTPPKAGAQPQPSNNRK
notes: also called RNA capping null mutant H93A; not shown: ALFA tag, C-terminal, kept
B2: FHV protein A D692E, C-terminal alfa tag (natural protein)
chain: MTLKVILGEHQITRTELLVGIATVSGCGAVVYCISKFWGYGAIAPYPQSGGNRVTRALQRAVIDKTKTPIETRFYPLDSLRTVTPKRVADNGHAVSGAVRDAARRLIDESITAVGGSKFEVNPNPNSSTGLRNHFHFAVGDLAQDFRNDTPADDAFIVGVDVDYYVTEPDVLLEHMRPVVLHTFNPKKVSGFDADSPFTIKNNLVEYKVSGGAAWVHPVWDWCEAGEFIASRVRTSWKEWFLQLPLRMIGLEKVGYHKIHHCRPWTDCPDRALVYTIPQYVIWRFNWIDTELHVRKLKRIEYQDETKPGWNRLEYVTDKNELLVSIGREGEHAQITIEKEKLDMLSGLSATQSVNARLIGMGHKDPQYTSMIVQYYTGKKVVSPISPTVYKPTMPRVHWPVTSDADVPEVSARQYTLPIVSDCMMMPMIKRWETMSESIERRVTFVANDKKPSDRIAKIAETFVKLMNGPFKDLDPLSIEETIERLNKPSQQLQLRAVFEMIGVKPRQLIESFNKNEPGMKSSRIISGFPDILFILKVSRYTLAYSDIVLHAEHNEHWYYPGRNPTEIADGVCEFVSDCDAEVIETDFSNLDGRVSSWMQRNIAQKAMVQAFRPEYRDEIISFMDTIINCPAKAKRFGFRYEPGVGVKSGSPTTTPHNTQYNGCVEFTALTFEHPDAEPEDLFRLIGPKCGEDGLSRAIIQKSINRAAKCFGLELKVERYNPEIGLCFLSRVFVDPLATTTTIQDPLRTLRKLHLTTRDPTIPLADAACDRVEGYLCTDALTPLISDYCKMVLRLYGPTASTEQVRNQRRSRNKEKPYWLTCDGSWPQHPQDAHLMKQVLIKRTAIDEDQVDALIGRFAAMKDVWEKITHDSEESAAACTFDEDGVAPNSVDESLPMLNDAKQTRANPGTSRPHSNGGGSSHGNELPRRTEQRAQGPRQPARLPKQGKTNGKSDGNITAGETQRGGIPRGKGPRGGKTNTRRTPPKAGAQPQPSNNRK
notes: also called RNA polymerase null mutant D692E; not shown: ALFA tag, C-terminal, kept

Biological target: the molecule itself
Experiment: negative-stain electron microscopy (2D classification, 3D reconstruction)

| Protein | binding result |
| --- | --- |
| B1 | binds |
| B2 | binds |
